The record followed here is IntAct's records for PubMed 23565059.

B1: Homeodomain-interacting protein kinase 2 (Mus musculus), Q9QZR5 (parent)
chain: MAPVYEGMASHVQVFSPHTLQSSAFCSVKKLKVEPSSNWDMTGYGSHSKVYSQSKNIPPSQPASTTVSTSLPIPNPSLPYEQTIIFPGSTGHIVVTSASSTSVTGQVLGGPHNLMRRSTVSLLDTYQKCGLKRKSEEIENTSSVQIIEEHPPMIQNNASGATVATATTSTATSKNSGSNSEGDYQLVQHEVLCSMTNTYEVLEFLGRGTFGQVVKCWKRGTNEIVAIKILKNHPSYARQGQIEVSILARLSTESADDYNFVRAYECFQHKNHTCLVFEMLEQNLYDFLKQNKFSPLPLKYIRPVLQQVATALMKLKSLGLIHADLKPENIMLVDPSRQPYRVKVIDFGSASHVSKAVCSTYLQSRYYRAPEIILGLPFCEAIDMWSLGCVIAELFLGWPLYPGASEYDQIRYISQTQGLPAEYLLSAGTKTTRFFNRDTDSPYPLWRLKTPDDHEAETGIKSKEARKYIFNCLDDMAQVNMTTDLEGSDMLVEKADRREFIDLLKKMLTIDADKRVTPIETLNHPFVTMTHLLDFPHSAHVKSCFQNMEICKRRVNMYDTVNQSKTPFITHVAPSTSTNLTMTFNNQLTTVHNQAPTTSSATLSLANPEVSILNYQSALYQPSAASMAAVAPRSMPLQTGTAQICARPDPFQQALIVCPPGFQGLQASPSKHAGYSVRMENAVPIVTQAPGAQPLQIQPGLLAQQAWPGGAQQILLPPAWQQLTGVATHTSVQHAAVIPETMAGTQQLADWRNTHAHGSHYNPIMQQPALLTGHVTLPAAQPLNVGVAHVMRQQPTSTTSSRKSKQHQSSVRNVSTCEVTSSQAISSPQRSKRVKENTPPRCAMVHSSPACSTSVTCGWGDVASSTTRERQRQTIVIPDTPSPTVSVITISSDTDEEEEQKHAPTSTVSKQRKNVISCVTVHDSPYSDSSSNTSPYSVQQRTGHNGTNTLDTKGGLENHCTGNPRTIIVPPLKTQASEVLVECDSLGPAISASHHSSSFKSKSSSTVTSTSGHSSGSSSGAIAYRQQRPGPHFQQQQPLNLSQAQQHMAADRTGSHRRQQAYITPTMAQAPYTFPHNSPSHGTVHPHLAAAAHLPTQPHLYTYTAPTALGSTGTVAHLVASQGSARHTVQHTAYPASIVHQVPVSMGPRVLPSPTIHPSQYPAQFAHQTYISASPASTVYTGYPLSPAKVNQYPYI

The variants in the test derive from B1. The following applies: with mef2c_mouse Mef2c.
Take K228A: the “effect of a mutation on the interaction” value is reported as “decreasing interaction strength”.
